B1: His-PspA(68–110) (HD2) (domain or fragment)
chain: not shown
notes: PspA, E. coli, residues 68-110 (HD2); Cloned NdeI-BamHI into pET28b+, which should give an N-terminal His tag as for the other fragments (surmised); a start codon was added by the forward primer; source: pET28b+-based plasmid pGJ52
B2: His-PspA(1–110) (HD1–HD2) (domain or fragment)
chain: not shown
B3: His-PspA(68–222) (HD2–HD3–HD4) (domain or fragment)
chain: not shown
B4: His-PspA(68–186) (HD2–HD3) (domain or fragment)
chain: not shown

Biological target: the molecule itself
Experiment: SEC; single proteins alone: 50-μl samples of 30 μM PspAFL or PspA fragments (20 μM PspF1–275), Superose 6, 4 °C, 20 mM Tris–HCl pH 8.0, 50 mM NaCl, 15 mM MgCl2; apparent oligomeric forms from calibration with globular proteins

| Protein | stoichiometry N [subunits] |
| --- | --- |
| B1 | 2 |
| B2 | 2 |
| B3 | 6 |
| B4 | 6 |
